Laboratory results from CN113484526A (SHANGHAI MABGEN MEDICINE TECH CO LTD, dated 2021).

Columns and labels:
[1] = biological target: Human FcRn Protein, His Tag (ACRO Biosystems, Cat.No.FCN-H52W7) (human) (UniProt P55899); test: competition ELISA against Biotin-IgG on FcRn-His, relative to the reference antibody (SEQ ID NO: 180/181)
[2] = biological target: T1, 人FcRn胞外区-β2M复合物(带His标签的重组蛋白) (human, UniProt P61769 21-119); test: hybridoma screening: binding ELISA, cell binding and cell blocking
T1 construct: also called FcRn抗原; 人FcRn-β2M复合物; not shown: His tag
T1 sequence (chain, as listed by the source limits assumed, chain 1 of 2): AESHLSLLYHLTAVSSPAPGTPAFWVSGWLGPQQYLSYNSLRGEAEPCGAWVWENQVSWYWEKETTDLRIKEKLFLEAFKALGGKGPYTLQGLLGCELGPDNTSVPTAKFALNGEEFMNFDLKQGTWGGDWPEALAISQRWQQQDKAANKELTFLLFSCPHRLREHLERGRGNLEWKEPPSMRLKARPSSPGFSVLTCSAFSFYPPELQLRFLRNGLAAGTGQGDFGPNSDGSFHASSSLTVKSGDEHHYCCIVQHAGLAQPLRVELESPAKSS
T1 sequence (P61769 21-119 limits assumed, chain 2 of 2): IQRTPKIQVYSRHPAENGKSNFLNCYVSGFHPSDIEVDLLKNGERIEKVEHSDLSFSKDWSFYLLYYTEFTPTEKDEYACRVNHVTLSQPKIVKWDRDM

Sequence of UniProt P55899 (P55899 24-297 limits assumed, chain 1 of 2): as the sequence (chain, as listed by the source limits assumed, chain 1 of 2) above
Sequence of UniProt P55899 (P61769 21-119 limits assumed, chain 2 of 2, further chain): as the sequence (P61769 21-119 limits assumed, chain 2 of 2) above

**Q.** With “不针对FcRn靶点的无关抗体(IgG4亚型，迈晋生物自制) (antibody)” as the molecule, how does the 生物学活性(相对参考品) [1] read?
**A.** Its 生物学活性(相对参考品) is 0%.

B1: hybri11 (antibody, V domains shown)
VH: QVQLQQPGAELVKPGASVKVSCKASGSTFTSYYMHWVKQRPGQGLEWIGRIHPSNSDSNYNQKFKGKATLTVDKSSSTAYMQLSSLTSEDSAVYYCAMKRDGYYEGFPHWGQGTLVTVSA
VL: DIQMTQSPASQSASLGESVTITCLASQTIGTWLAWYQQKPGKSPQLLIYAATSLADGVPSRFSGSRSGTKFSFKISSLQAEDFVSYYCQQLYSTPYTFGGGTKLEIK
notes: Mouse hybridoma antibody; tested as hybridoma supernatant/purified antibody; also called 阳性克隆hybri11
**Q.** Does B1 bind [2]?
**A.** Result: binds
